# Earlier results in paper PMC8138766.
# Read-outs that look alike come from different tables or passages of the source.
# How the values were obtained:
# [1] = biological target: V-ATPase subunit C (Saccharomyces cerevisiae) (UniProt P31412)
# [2] = biological target: V-ATPase subunit C (Saccharomyces cerevisiae) (UniProt P31412); remark: listed apart in the source
# Chain of V-ATPase subunit C (Saccharomyces cerevisiae) (P31412 2-392): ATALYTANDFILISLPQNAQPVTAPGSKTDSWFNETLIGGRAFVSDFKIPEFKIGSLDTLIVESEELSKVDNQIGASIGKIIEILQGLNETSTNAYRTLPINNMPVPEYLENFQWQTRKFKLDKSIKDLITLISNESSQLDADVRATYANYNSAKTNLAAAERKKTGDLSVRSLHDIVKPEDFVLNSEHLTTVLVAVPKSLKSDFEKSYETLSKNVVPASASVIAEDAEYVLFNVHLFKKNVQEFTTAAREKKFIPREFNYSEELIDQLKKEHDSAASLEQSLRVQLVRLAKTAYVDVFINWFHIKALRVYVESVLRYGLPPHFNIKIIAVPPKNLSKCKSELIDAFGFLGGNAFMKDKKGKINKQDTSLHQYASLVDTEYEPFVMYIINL
# Chain of V1 (P17255 2-1071): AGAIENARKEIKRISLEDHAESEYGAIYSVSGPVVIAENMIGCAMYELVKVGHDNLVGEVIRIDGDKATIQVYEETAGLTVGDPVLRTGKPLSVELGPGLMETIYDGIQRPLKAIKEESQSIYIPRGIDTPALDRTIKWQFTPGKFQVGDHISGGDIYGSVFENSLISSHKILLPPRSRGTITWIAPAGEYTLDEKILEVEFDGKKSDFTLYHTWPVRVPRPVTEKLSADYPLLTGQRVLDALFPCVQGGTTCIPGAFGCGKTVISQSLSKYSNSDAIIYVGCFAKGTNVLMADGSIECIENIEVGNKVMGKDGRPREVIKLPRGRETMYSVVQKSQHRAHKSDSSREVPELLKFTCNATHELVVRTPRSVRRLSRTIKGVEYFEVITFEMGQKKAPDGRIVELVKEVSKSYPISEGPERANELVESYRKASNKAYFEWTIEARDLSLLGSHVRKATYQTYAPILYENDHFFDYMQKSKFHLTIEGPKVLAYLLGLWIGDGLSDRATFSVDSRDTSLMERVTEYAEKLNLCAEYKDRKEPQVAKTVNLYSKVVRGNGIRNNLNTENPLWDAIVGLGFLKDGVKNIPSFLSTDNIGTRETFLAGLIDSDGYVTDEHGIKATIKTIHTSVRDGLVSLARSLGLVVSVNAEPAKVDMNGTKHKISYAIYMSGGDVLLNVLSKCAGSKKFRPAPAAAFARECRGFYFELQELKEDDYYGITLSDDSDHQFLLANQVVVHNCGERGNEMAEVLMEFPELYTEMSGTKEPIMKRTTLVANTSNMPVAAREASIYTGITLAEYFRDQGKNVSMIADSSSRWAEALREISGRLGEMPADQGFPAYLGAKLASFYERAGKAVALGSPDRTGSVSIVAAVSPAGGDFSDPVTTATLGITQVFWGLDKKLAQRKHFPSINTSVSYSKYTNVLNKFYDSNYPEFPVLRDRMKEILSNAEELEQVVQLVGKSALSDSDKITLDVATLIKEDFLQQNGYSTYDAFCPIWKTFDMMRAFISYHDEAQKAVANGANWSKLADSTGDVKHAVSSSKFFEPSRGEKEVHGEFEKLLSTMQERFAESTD
# Chain of V1 (P16140 2-517, further chain): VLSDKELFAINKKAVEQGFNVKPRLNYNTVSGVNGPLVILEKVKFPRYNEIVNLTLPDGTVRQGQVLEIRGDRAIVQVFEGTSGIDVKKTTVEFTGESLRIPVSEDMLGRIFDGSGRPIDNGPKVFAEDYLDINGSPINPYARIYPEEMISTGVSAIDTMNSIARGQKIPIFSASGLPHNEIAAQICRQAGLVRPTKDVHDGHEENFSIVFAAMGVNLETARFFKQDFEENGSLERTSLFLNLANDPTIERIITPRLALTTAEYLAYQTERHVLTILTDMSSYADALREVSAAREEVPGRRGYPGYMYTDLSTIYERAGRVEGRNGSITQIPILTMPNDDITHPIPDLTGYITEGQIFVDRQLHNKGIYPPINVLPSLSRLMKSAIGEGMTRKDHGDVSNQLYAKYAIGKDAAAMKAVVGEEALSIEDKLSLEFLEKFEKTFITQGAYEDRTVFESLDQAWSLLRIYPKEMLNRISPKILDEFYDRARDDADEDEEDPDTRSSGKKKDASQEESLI
# Chain of EG stalk (P22203 2-233): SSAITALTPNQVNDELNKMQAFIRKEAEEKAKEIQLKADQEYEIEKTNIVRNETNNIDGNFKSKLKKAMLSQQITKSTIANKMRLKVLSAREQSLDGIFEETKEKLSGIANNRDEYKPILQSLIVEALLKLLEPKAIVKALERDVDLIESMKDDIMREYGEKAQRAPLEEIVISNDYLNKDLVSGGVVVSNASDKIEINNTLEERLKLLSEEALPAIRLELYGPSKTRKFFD
# Chain of EG stalk (P48836 2-114, further chain): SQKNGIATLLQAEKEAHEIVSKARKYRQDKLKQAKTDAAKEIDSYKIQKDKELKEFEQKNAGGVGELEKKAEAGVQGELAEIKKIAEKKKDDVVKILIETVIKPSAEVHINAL
Kd [1] [nM],Kd [2] [nM],Substance
42,–,EG stalk (from UniProt P22203)
–,0.7,V1 (from UniProt P17255)
